The source of these data is patent US11918683B2, “Treatment of immune diseases by administration of antigen-specific formulations” (Allero Therapeutics B.V., priority 2017, dated 2024).

Ends that are not written are not given here.

For assay [1], the system named is NOD AB° DQ8 transgenic mice. In words: Antigen-specific DTH response (ear swelling) after SLIT. In kind it is in vivo. As to conditions: 10 μg DQ8d in ear, 24 hours, compared to PBS.
The test system of assay [2] is Foxp3. As to the kind of experiment: Foxp3 expression within CD4+ T cell population by FACS. In kind it is cell-based, NOD AB° DQ8 transgenic mice. As to conditions: spleen. As for the experimental part:
Flow cytometric analysis: spleens and cervical lymph node tissue of SLIT treated mice were isolated, prepared as described above and stained for CD4, CD25 and Foxp3. Intracellular staining was performed for Foxp3 according to the manufacturer's instructions (eBiosciences) and subsequently measured using flow cytometry on a Becton Dickinson FACSCaliburs. Cells were gated on CD4^+CD25^+ and CD4^+CD25^− subpopulations and within these populations Foxp3 histograms were used to determine Mean Fluorescence Intensity (MFI).
T-cell phenotyping: CD4 and CD25 antibodies were purchased from BD Biosciences, and APC anti-Foxp3 staining kits were purchased from eBiosciences. Anti-IL-10 neutralizing monoclonal antibody (1 μg/mL, clone JES052A5), TGF-β neutralizing monoclonal antibody (1 μg/mL, clone 1D11) and LAP (latency associated peptide) neutralizing antibodies (1 μg/mL, clone 27235) were obtained from R&D systems.
In general terms: A flow cytometer gives signals particle by particle.

In assay [3] the test system is OVA- or Ovm-sensitized piglets. In words: Piglet food allergy model, oromucosal PSF patch treatment. In kind it is in vivo, Landrace-Yorkshire piglets. As to conditions: oromucosal once weekly for 6 weeks.
For assay [4], the system named is OVA- or HDM-sensitized mice. In words: Sublingual immunotherapy (SLIT) mouse model. In kind it is in vivo, BALB/cByJ mice. As to conditions: sublingual 5 days a week for 8 weeks. As for the experimental part: Antigen: naturally purified Der p1 and 2 in a 50:1 ratio was purchased from Citeq or intact, LPS-free OVA grade V protein (Sigma Aldrich) was used as antigen in all experiments. Animals: BALB/cByJ mice were purchased from Charles River Laboratories at an age of 6 to 8 weeks and housed in individually ventilated cages (IVC). Sensitization of mice: all mice received intraperinoneal injections on day 1 and 15 of 5 μg crude extract […]) or 25 μg OVA adsorbed to 2.25 mg Alum (Imject, Pierce) in 100 μL PBS. […] Hereafter, airway responsiveness was determined, and bronchoalveolar lavage fluid (BALF), lungs, and blood were collected and stored for analyses. Measurement of airway hyperreactivity to methacholine: airway hyperresponsiveness (AHR) was assessed by measuring airway resistance (R in cmH2O.s/mL) and lung compliance (C in mL/H2O) in response to intravenous administration of increasing doses of methacholine (Sigma-Aldrich). The AHR was expressed as the effective dose of methacholine required to induce a R of 3 cmH2O.s/mL (ED3). […] ELISA determined the concentrations of IL-5, IL-10, IL-13 and IFN-γ, according to the manufacturer's instructions (BD Pharmingen). […]

Regarding “deaminated DQ8d peptide GAPVPYPDPLEPRQYPSGEGSFQPSQENPQA (also: deaminated (sites not given here)) [deaminated gliadin peptide antigen]”, the “DTH response (ear swelling)” value in assay [1] is listed as “slight reduction”. Further, in assay [2], the “number of Foxp3 CD4+ T cells” value is given as “did not show a significant increase”.

B1: Ovm: Ovm protein (ovomucoid) used as antigen (protein, UniProt P01005 25-210, looked up)
Ovomucoid: AEVDCSRFPNATDKEGKDVLVCNKDLRPICGTDGVTYTNDCLLCAYSIEFGTNISKEHDGECKETVPMNCSSYANTTSEDGKVMVLCNRAFNPVCGTDGVTYDNECLLCAHKVEQGASVDKRHDGGCRKELAAVSVDCSEYPKPDCTAEDRPLCGSDNKTYGNKCNFCNAVVESNGTLTLSHFGKC
With B1, the AHR result in assay [3] was “only a moderate effect”.

B2: OVA: intact, LPS-free OVA grade V protein (ovalbumin) used as antigen (protein, UniProt P01012 2-386, looked up)
Ovalbumin: GSIGAASMEFCFDVFKELKVHHANENIFYCPIAIMSALAMVYLGAKDSTRTQINKVVRFDKLPGFGDSIEAQCGTSVNVHSSLRDILNQITKPNDVYSFSLASRLYAEERYPILPEYLQCVKELYRGGLEPINFQTAADQARELINSWVESQTNGIIRNVLQPSSVDSQTAMVLVNAIVFKGLWEKAFKDEDTQAMPFRVTEQESKPVQMMYQIGLFRVASMASEKMKILELPFASGTMSMLVLLPDEVSGLEQLESIINFEKLTEWTSSNVMEERKIKVYLPRMKMEEKYNLTSVLMAMGITDVFSSSANLSGISSAESLKISQAVHAAHAEINEAGREVVGSAEAGVDAASVSEEFRADHPFLFCIKHIATNAVLFFGRCVSP
For B2, the AHR result in assay [4] and in assay [3] was “only a moderate effect” throughout.
